According to the supplement of paper PMC10567573:

B1: TRIM63 (parent)
chain: QRITQEQEKKLSFIEALIQQYQEQ
B2: ZNF449 (parent)
chain: CTHCSKSFRQRAGLIMHQVTHFRG

Variants of: B1
Test: protein stability index of a GFP-peptide fusion (GPS, HEK-293T) (PSI 1-6); higher = more stable
Settings: c terminus: a fixed tail appended
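Note: lentivirally expressed fusions sorted by FACS into six bins by GFP to DsRed ratio, PSI derived from sequencing read proportions per bin multiplied by bin number.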

Protein stability index, by site and new letter:
A16: G 3.33, H 2.45, I 3.03, K 2.25, L 1.7, M 3.77, N 2.69, P 4.08, Q 1.83, R 2.63, S 2.45, T 2.15, V 1.76, W 2.37, Y 2.31
L17: A 3.42, C 2.23, D 4.58, E 4.81, F 2.62, G 4.54, H 3.06, I 2.28, K 3.75, M 2.93, N 4.73, P 4.63, Q 4.03, R 4.34, S 4.13, T 3.31, V 2.2, Y 1.92
I18: A 2.65, C 2.67, D 2.92, E 2.2, F 2.74, G 3.67, H 3.6, K 2.42, L 2.3, M 2.22, N 3.57, P 4.54, Q 1.81, R 3.4, S 2.94, T 3.31, V 3.12, W 2.7, Y 3.29
Q19: A 1.8, C 2.6, D 2.46, E 2.56, F 1.91, G 2.51, H 2.04, I 2.73, K 2.48, N 2.25, P 3.19, R 1.38, T 2.75, V 1.81, W 2.62, Y 1.64
Q20: A 2.11, C 2.23, D 2.35, E 1.09, F 2.6, G 3.11, I 1.67, K 5.33, L 2.43, M 2.36, N 2.93, P 3.43, R 2.28, S 2.4, T 2.67, V 1.42, W 2.01
Y21: A 3.38, C 1.75, E 2.11, F 1.76, G 3.61, H 2.55, I 1.84, K 3.8, L 1.6, M 1.98, N 4.41, P 4.33, Q 2.75, R 3.91, S 3.19, T 3.23, V 2.32, W 1.8
Q22: A 2.36, C 2.48, D 1.77, E 1.5, F 2.02, G 2.89, H 2.52, I 1.35, K 2.03, L 2.1, M 1.79, N 2.79, P 3.12, R 2.42, S 2.41, T 2.22, Y 2.62
E23: A 1.96, C 2.37, D 2.62, F 2.01, G 2.57, H 2.14, I 1.54, K 2.4, L 2.65, M 1.51, N 1.9, P 1.95, Q 2.18, R 1.97, S 2, T 1.94, V 2.34, W 2.1, Y 1.99
Q24: A 2.41, C 2.51, D 1.82, E 2.14, F 1.97, H 2.49, I 2.52, K 2.06, L 2.16, M 2.57, N 2.25, P 2.68, R 2.06, S 1.98, T 2.36, V 2.24, W 1.46, Y 1.66

Variants of: B2
Test: as above
Settings: c terminus: a fixed tail appended

Protein stability index of substitutions, site by site:
C1: A 2.17, D 2.01, E 1.77, F 1.22, H 1.96, I 1.74, K 2.66, L 2.48, M 1.53, N 1.72
